Assays:
[1] = target: PneKC without His tag, co-expressed with N-terminally His-tagged PneA (Streptococcus pneumoniae); assay: negative-stain EM
[2] = target: T1, PneKC, wild type, N-terminally His-tagged, expressed without PneA (apo PneKC) (Streptococcus pneumoniae); assay: negative-stain EM
[3] = target: T1, PneKC, wild type, N-terminally …; assay: SEC
[4] = target: PneKC, wild type, N-terminal His7 tag, co-expressed with PneA from pQLinkN-PneKC-PneA (Streptococcus pneumoniae); assay: SEC

“PneKC without His tag, co-expressed with N-terminally His-tagged PneA (enzyme)” was tested, and the stoichiometry N [1] was 2.

B1: PneKC, wild type, N-terminally His-tagged, expressed without PneA (apo PneKC) (enzyme)
chain: MDYNFNLEHPFFFTNNDYSTDTSIKYQASLPFNWHEVMNNDEWVYQYPIGKFVERQGWKIHISSEYNSSHELLQDVAKICHEMRIPFKHLSTEDKFIMRNGKLVSRGFSGKFITCYPNQNELESVLQRLESALKQYNGPYILSDKRWDEAPIYLRYGVFRPSRDDEKKVAIDELIVGDEVVKDERLPVFKIPKGIVPPDFLNKWLDKKDKKQGDFPFIIDNAIRFSNSGGIYNARLKEDGKKIILKEARPYTGLGFDGTYSSEKLASECKALKILNEWSEAPKIYWHGKIWEHTFLGIEHMKGVPLNRWVTNNFPLYEVVDKTKDYLLRVSKIVEKLIDLTNKFHSENVYHQDLHLGNILVKDEDEISIIDWEQAVFSNDEKVVHKVAAPGFRAWRETLPSEIDWYGIRQIAHYLYMPLVTTSDLTYNYVSQTRIEGKKLFESLGYTREHIDYVESLLSYLDSKCPQIENISRKKVLKPMHEIRTIESEQDIQDFIIKLLRGFTLTYGQWRKEFQSRFFPVHYYGLNFNQGIAFSDLAILWSYQQLAKKVKNFKFDDYYEIRTQVINEAVNNFKKSSLSGLFDGKIGTIWLIYEFGEIDRAVELFTTHFIEIFENSQNKNLYSGQAGILLVGLYFLSKGEIDNKLGEEILIRLREYTLNYIENPETFCKVGASDVQSNDPYENFGGLLYGHAGVAWLFGEAYKLTGESIYKNGLELAVDKELVAYKVDSNNSLQYSQGHRLLPYLATGSAGLLLLINRNKEILSSKYLKYLTSLERATDVVFCVLPGLFNGFCGLEVANNIYSDIDDNFSGQKKLIEQLYRYLCVIEEGFVIAGDNGLKITTDIASGFAGVAIGLVSIMDNKLTILPQI
modifications: not checked
B1 showed a stoichiometry N [2] of 2 and a stoichiometry N [3] of 2.

B2: PneKC, wild type, N-terminal His7 tag, co-expressed with PneA from pQLinkN-PneKC-PneA (enzyme)
chain: MDYNFNLEHPFFFTNNDYSTDTSIKYQASLPFNWHEVMNNDEWVYQYPIGKFVERQGWKIHISSEYNSSHELLQDVAKICHEMRIPFKHLSTEDKFIMRNGKLVSRGFSGKFITCYPNQNELESVLQRLESALKQYNGPYILSDKRWDEAPIYLRYGVFRPSRDDEKKVAIDELIVGDEVVKDERLPVFKIPKGIVPPDFLNKWLDKKDKKQGDFPFIIDNAIRFSNSGGIYNARLKEDGKKIILKEARPYTGLGFDGTYSSEKLASECKALKILNEWSEAPKIYWHGKIWEHTFLGIEHMKGVPLNRWVTNNFPLYEVVDKTKDYLLRVSKIVEKLIDLTNKFHSENVYHQDLHLGNILVKDEDEISIIDWEQAVFSNDEKVVHKVAAPGFRAWRETLPSEIDWYGIRQIAHYLYMPLVTTSDLTYNYVSQTRIEGKKLFESLGYTREHIDYVESLLSYLDSKCPQIENISRKKVLKPMHEIRTIESEQDIQDFIIKLLRGFTLTYGQWRKEFQSRFFPVHYYGLNFNQGIAFSDLAILWSYQQLAKKVKNFKFDDYYEIRTQVINEAVNNFKKSSLSGLFDGKIGTIWLIYEFGEIDRAVELFTTHFIEIFENSQNKNLYSGQAGILLVGLYFLSKGEIDNKLGEEILIRLREYTLNYIENPETFCKVGASDVQSNDPYENFGGLLYGHAGVAWLFGEAYKLTGESIYKNGLELAVDKELVAYKVDSNNSLQYSQGHRLLPYLATGSAGLLLLINRNKEILSSKYLKYLTSLERATDVVFCVLPGLFNGFCGLEVANNIYSDIDDNFSGQKKLIEQLYRYLCVIEEGFVIAGDNGLKITTDIASGFAGVAIGLVSIMDNKLTILPQI
modifications: not checked
In the case of B2, the stoichiometry N [4] is reported as 2.
